Several values for one entry are separate records, joined by “and”; a condition that tells them apart may be missing. Equal values may be shown once.
How the values were obtained:
[1] = system: C=C(C)CCO[P@@](=O)(O)OP(=O)(O)O; assay: purified protein, by the assay type; settings: 70.0 °C; for kcat: other: IPP and DMAPP as co-substrates, MgCl2 cofactor; for Km: other: apparent, at saturating concentrations of DMAPP (350 mM [sic]), means ± SD of three determinations
Method: (§1) The assay procedures and methods for product analysis were similar to those previously described (C. Burke and R. Croteau, J. Biol. Chem. 277:3141-3149, 2002), except that for radio-GC a Raga (Raytest) radio-detector connected in-line to a Series 600 (Gow-Mac) chromatograph was employed with a 5% phenyl polysiloxane (ZB-5; Phenomenex) capillary column under hydrogen gas flow (70° C. for 5 min. followed by an 8° C. per min. ramp to 240° C. for 5 min).
(§2) Molecular weight determination and kinetic evaluation. […] For kinetic evaluation, the standard prenyltransferase assay was performed (C. Burke and R. Croteau, J. Biol. Chem. 277:3141-3149, 2002) but the reaction was terminated after 4 min. to ensure linearity in the rate measurements.
(§3) Kinetic characterization of the GPP synthases (SEQ ID NOS:12, 16, and 20).

[2] = system: CC(C)=CCOP(=O)(O)OP(=O)(O)O; assay: purified protein, by the assay type; settings: other: apparent; at saturating concentrations of IPP (212 mM [sic]); means ± SD of three determinations; 70.0 °C
Method: as §1, §2, §3

Substance | kcat [1] | Km [1] | Km [2]
Grand fir (Abies grandis) geranyl diphosphate synthase AgGPPS1, N-terminally truncated (E88M), C-terminal His6 tag, SEQ ID NO: 16 (Abies grandis; E88M) | 1.6 s⁻¹ | 44 ± 5 µM | 163 ± 13 µM
Grand fir (Abies grandis) geranyl diphosphate synthase AgGPPS2, N-terminally truncated (E86M), C-terminal His6 tag, SEQ ID NO: 12 (Abies grandis; E86M) | 1.8 s⁻¹ | 55 ± 4 µM | 90 ± 1 µM
Grand fir (Abies grandis) geranyl diphosphate synthase AgGPPS3, N-terminally truncated (E92M), C-terminal His6 tag, SEQ ID NO: 20 (Abies grandis; E92M) | 0.47 s⁻¹ and 0.5 ± 0.1 s⁻¹ | 44 ± 7 µM | 82 ± 5 µM
